For eight molecules, Transduction efficiency results are on record in patent US20230287120A1 (ALLOGENE THERAPEUTICS, published 2023).

Sequences and labels used below:
B1: 4E1 (other)
CAR: QVQLQQSGPGLVKPSQTLSLTCAISGDNVSTNSAAWNWIRQSPSRGLEWLGWTYYRSKWYNDYAVSLKSRININPDTSKNQFSLQLNSVTPEDTAVYYCARWVNRDVFDIWGQGTMVTVSSGGGGSGGGGSGGGGSGGGGSQSALTQPASVSGSPGQSITISCTGTSSDVGSYNLVSWYQQHPGKAPKLMIYEGSKRPSGVSNRFSGSKSGNTASLTISGLQAEDEADYYCCSYAGSSTWVFGGGTKLTVLTTTPAPRPPTPAPTIASQPLSLRPEACRPAAGGAVHTRGLDFACDIYIWAPLAGTCGVLLLSLVITKRGRKKLLYIFKQPFMRPVQTTQEEDGCSCRFPEEEEGGCELRVKFSRSADAPAYQQGQNQLYNELNLGRREEYDVLDKRRGRDPEMGGKPRRKNPQEGLYNELQKDKMAEAYSEIGMKGERRRGKGHDGLYQGLSTATKDTYDALHMQALPPR
notes: also called anti-DLL3 CAR with 4E1 scFv, on primary T cells
B2: 5G2 (other)
CAR: QVQLQQSGPGLVKPSQTLSLTCAISGDSVSSNSAVWNWIRQSPSRGLEWLGWTYYRSKYYNDYAVSLKSRITINPDTSKNQFSLQLNSLTPEDTAVYYCTRGGIVGAPDGFDIWGQGTMVTVSSGGGGSGGGGSGGGGSGGGGSQSALTQPPSASGTPGQRVTISCSGSNSNIGSNPINWYQQLPGTAPKLLIYSNNQRPSGVPDRFSGSKSGTSASLAISGLQSEDEADYYCAAWDDSLNGHVFGTGTKVTVLTTTPAPRPPTPAPTIASQPLSLRPEACRPAAGGAVHTRGLDFACDIYIWAPLAGTCGVLLLSLVITKRGRKKLLYIFKQPFMRPVQTTQEEDGCSCRFPEEEEGGCELRVKFSRSADAPAYQQGQNQLYNELNLGRREEYDVLDKRRGRDPEMGGKPRRKNPQEGLYNELQKDKMAEAYSEIGMKGERRRGKGHDGLYQGLSTATKDTYDALHMQALPPR
notes: also called anti-DLL3 CAR with 5G2 scFv, on primary T cells
B3: 11A8 (other)
CAR: QVQLQQSGPGLVKPSQTLSLTCAISGDSVSSNSATWNWIRQSPSTGLEWLARTYYRSKWYNDYEVSVKSQITINPDTSKNQFSLQLNSVTPEDTAVYYCARGGIVGAPDAFDIWGQGTMVTVSSGGGGSGGGGSGGGGSGGGGSQSVLTQPPSASGTPGQGVTISCSGSSSNIGSNPVNWYQQLPGTAPKLLIYSNNQRPSGVPDRFSDSKSGTSASLAISGLQSEDEADYYCSAWDDWLNGYVFGTGTKVTVLTTTPAPRPPTPAPTIASQPLSLRPEACRPAAGGAVHTRGLDFACDIYIWAPLAGTCGVLLLSLVITKRGRKKLLYIFKQPFMRPVQTTQEEDGCSCRFPEEEEGGCELRVKFSRSADAPAYQQGQNQLYNELNLGRREEYDVLDKRRGRDPEMGGKPRRKNPQEGLYNELQKDKMAEAYSEIGMKGERRRGKGHDGLYQGLSTATKDTYDALHMQALPPR
notes: also called anti-DLL3 CAR with 11A8 scFv, on primary T cells
B4: 10A2 (other)
CAR: QVQLQQSGPGLVKPSETLSLTCAISGDSVSSNSATWNWIRQSPSRGLEWLGRTYYRSEWYNDYAVSVKSRITINPDTSKNHLSLHLNSVTPEDTAVYYCAGGGIVGAPDGFDVWGQGTMVTVSSGGGGSGGGGSGGGGSGGGGSQSVLTQPPSASGTPGQRVTISCSGSSSNIGSDPVIWYQQLPRTAPKLLIYSNNQRPSGVPDRFSGSKSGTSASLAISGLQSEDEADYYCAAWDDSLNGYVFGTGTKVTVLTTTPAPRPPTPAPTIASQPLSLRPEACRPAAGGAVHTRGLDFACDIYIWAPLAGTCGVLLLSLVITKRGRKKLLYIFKQPFMRPVQTTQEEDGCSCRFPEEEEGGCELRVKFSRSADAPAYQQGQNQLYNELNLGRREEYDVLDKRRGRDPEMGGKPRRKNPQEGLYNELQKDKMAEAYSEIGMKGERRRGKGHDGLYQGLSTATKDTYDALHMQALPPR
notes: also called anti-DLL3 CAR with 10A2 scFv, on primary T cells
B5: 3B1 (other)
CAR: QVQLQQSGPGLVKPSQTLSLTCAISGDSVSSNTTAWKWSRQSPSKGLEWLGWTYYRSKWYYDYTVSVKSRITINPDTSKNQFSLQLNSVTPEDTAVYYCARWIFHDAFDIWGQGTMVTVSSGGGGSGGGGSGGGGSGGGGSQSALTQPPSASGTPGQRVTISCSGSSSNIGSNTVNWYQQLPGTAPKLLIYTNNQRPSGVPDRFSGSKSGTSASLAISGLQSEDEADYFCSTWDDSLNGPVFGGGTKLTVLTTTPAPRPPTPAPTIASQPLSLRPEACRPAAGGAVHTRGLDFACDIYIWAPLAGTCGVLLLSLVITKRGRKKLLYIFKQPFMRPVQTTQEEDGCSCRFPEEEEGGCELRVKFSRSADAPAYQQGQNQLYNELNLGRREEYDVLDKRRGRDPEMGGKPRRKNPQEGLYNELQKDKMAEAYSEIGMKGERRRGKGHDGLYQGLSTATKDTYDALHMQALPPR
notes: also called anti-DLL3 CAR with 3B1 scFv, on primary T cells
B6: 11E4 (other)
CAR: QVQLQESGPGLVKPSETLSLTCTVSGGSISSYYWSWIRQSPGKGLEWIGYVYYSDITNYNPSLKSRVTISVDTSKNQFSLNLNSVTAADTAFYFCARIGVAGFYFDYWGQGTLVTVSSGGGGSGGGGSGGGGSGGGGSEIVLTQSPDTLSLSPGERATLSCRASQSVSRRYLAWYQQKPGQAPRLLIYGASSRATGIPDRFSGSGSGTDFTLTISRLEPEDFEVYYCQQYGTSPITFGQGTRLEIKTTTPAPRPPTPAPTIASQPLSLRPEACRPAAGGAVHTRGLDFACDIYIWAPLAGTCGVLLLSLVITKRGRKKLLYIFKQPFMRPVQTTQEEDGCSCRFPEEEEGGCELRVKFSRSADAPAYQQGQNQLYNELNLGRREEYDVLDKRRGRDPEMGGKPRRKNPQEGLYNELQKDKMAEAYSEIGMKGERRRGKGHDGLYQGLSTATKDTYDALHMQALPPR
notes: also called anti-DLL3 CAR with 11E4 scFv, on primary T cells
B7: 2404.6H1 (other)
CAR: QVQLVESGGGVVQPGRSLRLSCAASGFTFSSYGMHWVRQTPGKGLEWVAVISYDGNSNYYADSVKGRFTISRDNSKNTLYLQMNSLRAEDTAVYYCARDGATVTSYYYYGMDVWGQGTTVTVSSGGGGSGGGGSGGGGSGGGGSEIVLTQSPGTLSLSPGERATLSCRASQSVSRTYLAWYHQKPGQAPRLLIYGASSRATGISDRFSGSGSGTDFTLTISRLEPEDFAVYYCQQYGTSPITFGQGTRLEIKTTTPAPRPPTPAPTIASQPLSLRPEACRPAAGGAVHTRGLDFACDIYIWAPLAGTCGVLLLSLVITKRGRKKLLYIFKQPFMRPVQTTQEEDGCSCRFPEEEEGGCELRVKFSRSADAPAYQQGQNQLYNELNLGRREEYDVLDKRRGRDPEMGGKPRRKNPQEGLYNELQKDKMAEAYSEIGMKGERRRGKGHDGLYQGLSTATKDTYDALHMQALPPR
notes: also called anti-DLL3 CAR with 2404.6H1 scFv, on primary T cells
B8: 3B11 (other)
CAR: QVQLQQSGPGLVKPSQTLSLTCAISGDSVSSNSVVWNWIRQSPSRGLEWLGRTYYRSKWYDDYAVSVKSRITINPDTSKNQFSLQLNSVTPEDTAVYHCARGGIVGAPDAFDIWGQGTMVTVSSGGGGSGGGGSGGGGSGGGGSQSVLTQPPSASGTPGQRVTISCSGSSSNIGSDPVSWYQQFPGTAPKLLIYTNNQRPSGVPDRFSGSKSGTSASLAISGLQSEDEADYYCAAWDDSLNGHVFGTGTKVTVLTTTPAPRPPTPAPTIASQPLSLRPEACRPAAGGAVHTRGLDFACDIYIWAPLAGTCGVLLLSLVITKRGRKKLLYIFKQPFMRPVQTTQEEDGCSCRFPEEEEGGCELRVKFSRSADAPAYQQGQNQLYNELNLGRREEYDVLDKRRGRDPEMGGKPRRKNPQEGLYNELQKDKMAEAYSEIGMKGERRRGKGHDGLYQGLSTATKDTYDALHMQALPPR
notes: also called anti-DLL3 CAR with 3B11 scFv, on primary T cells

One assay deals with T1, Flag tagged recombinant DLL3 (Adipogen) (Homo sapiens (Human), UniProt Q9NYJ7 27-492).
T1 construct: Bought reagent; also called Flag-DLL3
T1 sequence: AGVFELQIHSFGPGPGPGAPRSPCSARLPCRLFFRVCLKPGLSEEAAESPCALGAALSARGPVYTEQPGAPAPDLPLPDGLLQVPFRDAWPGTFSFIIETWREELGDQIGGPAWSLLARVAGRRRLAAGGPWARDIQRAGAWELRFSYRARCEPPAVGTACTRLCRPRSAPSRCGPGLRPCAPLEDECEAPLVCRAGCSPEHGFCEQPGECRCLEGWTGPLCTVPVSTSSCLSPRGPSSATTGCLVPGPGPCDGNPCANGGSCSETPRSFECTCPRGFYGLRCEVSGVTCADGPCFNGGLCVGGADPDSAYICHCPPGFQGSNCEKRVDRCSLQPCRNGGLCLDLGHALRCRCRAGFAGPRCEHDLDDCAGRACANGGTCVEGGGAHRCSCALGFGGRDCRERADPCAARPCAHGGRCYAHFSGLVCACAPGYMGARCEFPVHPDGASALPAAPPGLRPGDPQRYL
Briefly: flow cytometry, percent of T cells that recognise recombinant DLL3, Donor 419. For orientation: In flow cytometry, cells or beads pass a laser one at a time.
Procedure: (§1) To determine the percentage of T cells that were successfully transduced with DLL3 CAR, T cells were first incubated with 1 ug/ml Flag tagged recombinant DLL3 (Adipogen) in PBS+1% BSA for 20 minutes at 4 C.
On to B1, for which the Transduction efficiency is 2.35%.
Consider B2, for which the Transduction efficiency is 36.7%.
On the same count and under the same terms, with B3 the figure was 33.4%.
Same read-out and setting: with B4 the figure was 58.5%; with B5, 6.15%.
Take B6: the Transduction efficiency was 54.8%.
Turning to B7, the Transduction efficiency was found to be 6.01%.
Take B8: the Transduction efficiency is 57.3%.

A further assay has as its target T1, Flag tagged recombinant DLL3 (Adipogen). Briefly: flow cytometry, percent of T cells that recognise recombinant DLL3, Donor 503.
Procedure: as §1
With B1, the Transduction efficiency came to 3.18%.
As to B2, the Transduction efficiency stood at 42.8%.
For the molecule B3, the Transduction efficiency turned out to be 45.1%.
With B4, the Transduction efficiency is 67.6%.
As for B5, the Transduction efficiency was 7.95%.
On to B6, for which the Transduction efficiency amounted to 62.8%.
Regarding B7, the Transduction efficiency was found to be 6.41%.
As for B8, the Transduction efficiency is 65.8%.
